Laboratory results: patent US20050026157, “Use of chimeric nucleases to stimulate gene targeting” (published 2005)

Columns and labels:
[1] = system: CD8CN1 chimeric nuclease (synthetic); test: cell_activity; conditions: paired with CD8CN2; 5% without nucleases
[2] = system: GFP-CN2 chimeric nuclease (synthetic); test: cell_activity; conditions: paired with GFP-CN1, 293 cells
[3] = system: CD8CN2 chimeric nuclease (synthetic); test: cell_activity; conditions: paired with CD8CN1; 5% without nucleases
[4] = system: HCGCZF2 chimeric nuclease (synthetic); test: cell_activity; conditions: with ZIF-L3-Fn on hybrid target; no significant stimulation alone
[5] = system: QQR-L0-Fn chimeric nuclease (QQR zinc finger triplet, no linker, FokI nuclease domain) (synthetic); test: cell_activity
[6] = system: QQR-L18-Fn chimeric nuclease (QQR zinc finger triplet, 18 aa linker, FokI nuclease domain) (synthetic); test: cell_activity; conditions: homodimer, 293 cells
[7] = target: ZIF-L3-Fn chimeric nuclease (Zif268 zinc fingers, 3 aa linker, FokI nuclease domain) (UniProt P08046); test: cell_activity; conditions: QQRZIF6 target, heterodimer with QQR-L0-Fn; no significant stimulation alone; FIG. 3A prints Zif site as GCGTGGTCG
ZIF-L3-Fn chimeric nuclease (Zif268 zinc fingers, 3 aa linker, FokI nuclease domain), sequence (P08046 whole entry, change not shown, the tested form may be a part): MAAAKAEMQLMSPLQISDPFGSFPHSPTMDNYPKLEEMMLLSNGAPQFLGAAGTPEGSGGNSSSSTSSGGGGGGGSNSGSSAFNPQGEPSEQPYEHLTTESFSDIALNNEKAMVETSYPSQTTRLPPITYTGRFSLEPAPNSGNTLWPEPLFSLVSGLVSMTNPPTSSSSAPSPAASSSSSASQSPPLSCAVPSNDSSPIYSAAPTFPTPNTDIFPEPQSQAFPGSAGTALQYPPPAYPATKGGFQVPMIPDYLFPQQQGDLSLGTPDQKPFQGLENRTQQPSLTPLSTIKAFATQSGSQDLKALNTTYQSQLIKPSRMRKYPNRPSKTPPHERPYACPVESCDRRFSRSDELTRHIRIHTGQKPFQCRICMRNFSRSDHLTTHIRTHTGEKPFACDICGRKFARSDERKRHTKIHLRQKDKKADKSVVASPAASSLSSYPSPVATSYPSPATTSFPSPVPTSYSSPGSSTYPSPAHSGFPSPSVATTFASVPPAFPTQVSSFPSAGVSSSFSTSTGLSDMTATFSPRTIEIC

[8] = system: HBGZF4 chimeric nuclease (synthetic); test: cell_activity; conditions: with ZIF-L3-Fn on hybrid target; ~30 fold alone
[9] = system: HBGZF1 chimeric nuclease (synthetic); test: cell_activity; conditions: with ZIF-L3-Fn on hybrid target; no significant stimulation alone
[10] = system: GFP-CN1 chimeric nuclease (synthetic); test: cell_activity; conditions: paired with GFP-CN2, 293 cells
I-SceI = target: T1, I-SceI (UniProt P03882 P03882:1-235); test: cell_activity; homing endonuclease, A658 target, 293 cells
T1 sequence: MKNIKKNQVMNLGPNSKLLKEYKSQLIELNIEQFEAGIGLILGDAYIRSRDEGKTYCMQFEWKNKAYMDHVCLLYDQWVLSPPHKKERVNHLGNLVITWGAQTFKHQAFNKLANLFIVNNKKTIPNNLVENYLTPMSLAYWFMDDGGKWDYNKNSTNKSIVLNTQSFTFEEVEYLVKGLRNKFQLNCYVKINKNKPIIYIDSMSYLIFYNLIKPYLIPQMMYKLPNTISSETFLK
From the text: FIG. 1A illustrates a GFP gene targeting system. The artificial gene target (A658) consisted of a GFP gene mutated by a 35 basepair insertion which includes a stop codon and a recognition site for the I-SceI endonuclease (Sce) (5′ […] 3′) at basepair 327 of the coding sequence. The GFP gene was driven by a hybrid cytomegalovirus enhancer/chicken β3-actin promoter (“CMV/CBA” or “CBA”). The GFP gene was part of bicistronic transcript in which an internal ribosomal entry site (“IRES”) allowed translation of the human CD8α gene (“CD8”). The bicistronic message contained a Woodchuck post-trancriptional regulatory element (“WPRE”) to increase messenger RNA levels (Zufferey et al., 1999, J Virol, 73:2886-92). Finally, the locus contained a gene with the phosphoglycerate kinase promoter (“PGK”) driving the neomycin phosphotransferase gene (NEO) to allow selection by the antibiotic G418. […] Gene targeting was measured by transfecting 293/A658 cells with RS2100 with or without a Sce expression plasmid along with a control plasmid (pON405) to determine the transfection efficiency. […] The cells were then incubated for 3 days and the percentage of GFP positive cells measured by flow cytometry using a FACScan (BD Biosciences, San Jose, Calif.). The gene targeting rate was determined by normalizing the measured percentage of GFP positive cells to the transfection efficiency.

GTGGGCGCC (double strand) [CD8CN1 half-site]
activity (% CD8 negative cells) [1]: > 20

GACGACGGC (double strand) [GFP-CN2 half-site]
activity (fold stimulation of gene targeting) [2]: 1000

GTCGCAGCC (double strand) [CD8CN2 half-site]
activity (% CD8 negative cells) [3]: > 20

GGGGGAGCA (double strand) [HCGCZF2 half-site]
activity (fold stimulation of gene targeting) [4]: > 200

GGGGAAGAA (double strand) [QQR6 target (inverted QQR sites, 6 bp spacer)]
activity (fold stimulation of gene targeting) ([5]; homodimer, 293 cells, as efficient as I-SceI): > 2000
activity (fold stimulation of gene targeting) [6]: 17

GCGTGGGCG (double strand) [Zif268 half-site]
activity (fold stimulation of gene targeting) [7]: > 5000

GGCAAGGTG (double strand) [HBGZF4 half-site]
activity (fold stimulation of gene targeting) [8]: 60

GGGGAAGAA (double strand) [QQR half-site in QQRZIF6]
activity (fold stimulation of gene targeting) ([5]; QQRZIF6 target, heterodimer with ZIF-L3-Fn, no significant stimulation alone): > 5000

GAGGTTGCT (double strand) [HBGZF1 half-site]
activity (fold stimulation of gene targeting) [9]: > 4000

GGGGAAGAA (double strand) [QQR8 target (inverted QQR sites, 8 bp spacer)]
activity (fold stimulation of gene targeting) [6]: 260

GAAGATGGT (double strand) [GFP-CN1 half-site]
activity (fold stimulation of gene targeting) [10]: 1000

B1: I-SceI site in A658 (dsDNA)
DNA 1: TAGGGATAACAGGGTAAT
DNA 2: ATTACCCTGTTATCCCTA
activity (I-SceI): > 2000 fold stimulation of gene targeting
